Measured values as given in the supplement of paper PMC12042874.
± gives the uncertainty stated by the source.

Assay: amyloid nucleation score (Sup35N fusion, yeast selection) (log enrichment); library NNK2; higher = more nucleation; inactive = no reads after selection
Procedure, shortened: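 The nucleation score is the DiMSum log enrichment of output over input reads, centred on the mode score of non-aggregating sequences. Only sequences with 100 or more input reads were scored, using Illumina sequencing of input and output plasmid inserts. Psi-negative yeast expressing Sup35N fused to peptides of 20 random codons were induced 24 hours with 100 μM copper sulfate and grown 7 days at 30°C on medium lacking adenine and uracil.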

Row | Substance | amyloid nucleation score
1 | DANLQIH | -0.774 ± 0.45
2 | VVTIIRSSVWVSTLCFGFFV | 4.01 ± 0.068
3 | LDSSYY | inactive
4 | NIRNRSVNDLIRRDAYRLAL | -0.175 ± 0.8
5 | CLMDCGLYFTGSNLRAMCTW | -0.223 ± 0.49
6 | IFNVRRVLHFIIYVSDIPLD | -1.89 ± 0.78
7 | GNGLFSVFYIFYAAGKRSVC | 0.394 ± 0.62
8 | RSHMSRLIVDFNTG | 0.474 ± 0.3
9 | WSVCKRLCNVEMLAENLAID | -0.67 ± 0.79
10 | WFFRVLCLCRTLWNHYSFF | 0.054 ± 0.79
11 | MEFSAKFIYFS | 1.48 ± 0.11
12 | FNLAPLMVIMPGIMGWGLLG | 1.67 ± 0.16
13 | ACQHSG | 4.36 ± 0.048
14 | HLCKLSYI | 1.2 ± 0.33
15 | IPFLAVACLGDQWDD | 0.304 ± 0.18
16 | SRKLRLVRGFWG | -0.067 ± 0.62
17 | GVVPQGMMTI | -0.701 ± 0.55
18 | LFKCVSTGHYLLTFRVVVYG | -0.456 ± 0.39
19 | VTWGIIYRLSDG | 3.58 ± 0.09
20 | VVTFTDYI | 0.237 ± 1
21 | KGRFHNLTEPGRVQEKE | -1.32 ± 0.49
22 | FSSIDPPNTRSAVSFRMTSP | 0.065 ± 0.65
23 | SSWLRINRIYLYEQL | -0.305 ± 1
24 | GNMISERSKSSVHN | -1.52 ± 1.1
25 | TLWVDRVREMC | -0.809 ± 0.36
26 | CSDRSICFANSYFEF | -0.101 ± 0.63

Row | Substance | amyloid nucleation score
27 | KATSCFLDWCGCPWHLMALD | 0.496 ± 0.29
28 | FYWAKPSHWAPGFINGQDVL | -1.19 ± 0.54
29 | FIGCKEHNILNSMKRVD | -0.594 ± 1.1
30 | QSNVCKIGSGVDESGNNMTL | 0.532 ± 0.37
31 | LWVGQLTTY | 0.199 ± 0.45
32 | RANKYVASRFVITFKVACFE | 0.092 ± 1.1
33 | SSRRV | 0.497 ± 0.56
34 | ESTLDC | 0.343 ± 0.41
35 | WARNEIYRRSTNKWPPMVRG | -0.014 ± 0.76
36 | LTHQRRRLMMCI | 0.283 ± 0.32
37 | KCSKLRGYTCIMLSIGCLNY | 2.71 ± 0.07
38 | GIRVLRTRYSLELCMRCLLW | 0.126 ± 0.26
39 | LDDPCSHYILGSGHDHVLRR | 0.697 ± 0.81
40 | AGAHVVKAIHFSLYGNEGLT | 0.6 ± 0.74
41 | ARTLWY | -0.522 ± 0.28
42 | RYLIGNSGNYVNGCVEQALR | -0.365 ± 0.76
43 | FFGLVNWVGLGVHRSMTFAK | -0.609 ± 0.41
44 | NDRRRRGCRWMVAALVSSVL | 0.966 ± 0.53
45 | YVITSSPSLYACICSGVSVR | 4.87 ± 0.1
46 | WTYACPKRHNVIVVC | 3 ± 0.062
47 | YSFGVQC | 0.067 ± 0.25
48 | HFSLAC | -0.91 ± 0.48
49 | TLFRKL | -0.543 ± 0.44
50 | TWESSV | 0.613 ± 0.2
51 | WSSTVKSVKSAGAP | 0.475 ± 0.38
52 | RLRVY | -0.781 ± 0.35

Row | Substance | amyloid nucleation score
53 | SRCNISTRLLATLDVLQEKE | 2.25 ± 0.08
54 | FEKEWYSGLCFARAVARGMR | 2.97 ± 0.17
55 | HLFACSTYKSSHRVQVCTVI | -0.497 ± 1
56 | CMSNAKCKGVDFAAGKLLSC | -0.004 ± 0.49
57 | FAVKGCNFGTGVFMRVE | 0.021 ± 0.34
58 | HPTLEPGKHYLRVSKSNTSR | 0.404 ± 0.26
59 | LERNSMPITVSWSGFEGLKG | -0.295 ± 0.65
60 | VDWCWGLWT | 0.945 ± 0.24
61 | YMNQERVQTVFDSRICFRLH | -0.246 ± 0.35
62 | WPLRL | 0.348 ± 0.31
63 | MCLMYANWERFDQKNGLR | 4.12 ± 0.12
64 | VMRHERTNFIYSKWWGFVEE | -0.011 ± 0.65
65 | NFSSWSER | -0.885 ± 0.54
66 | SRSVLSNSDTPTNNAVNCVA | -0.027 ± 0.56
67 | RSLSLLLVFLAMCAIMVPMR | 8.575 ± 0.04
68 | NLSFLEPLYWNEVSYFVRCC | 6.369 ± 0.023
69 | DLGHLTLISKFKFNESSAEH | -0.221 ± 1.1
70 | DIMTYPLRSINRRFKGVGRR | 4.481 ± 0.039
71 | SWPPKAQLMAVARCSAREAD | -0.337 ± 1.1
72 | QMFVRCSQ | 0.705 ± 0.66
73 | EIHGMCTLYIFNSRPYIYPG | 6.594 ± 0.035
74 | MLSFHLSVVAETMTWWSTRY | 0.857 ± 0.19
75 | RTVQQIAPVGGHERVKC | -0.175 ± 0.26
76 | RNGLTFRRTYSAYC | 1.01 ± 0.25
77 | RESYMLSYGKILNACQCIVG | 9.12 ± 0.079
78 | KNFFSRRTW | 2.98 ± 0.14

Row | Substance | amyloid nucleation score
79 | QVLLGTLHKVY | 1.4 ± 0.49
80 | HIRFYVLSRNRSASNISIFT | 3.09 ± 0.054
81 | ARMITWGRNMILTPSPMRHK | -0.783 ± 1
82 | LGRWASGTAG | 0.558 ± 0.57
83 | FYMLYYQIAVSCHLCFDILV | inactive
84 | LAQQRPLRQRTMRHGSRFTA | 0.671 ± 0.43
85 | AGTFKRWPLGYECFVSERIG | -0.803 ± 0.49
86 | CSMKYGCRVYVRNPSLSECD | 0.547 ± 0.45
87 | YSSSSSTYNAWFSMPESHEL | 0.264 ± 0.15
88 | LRGMTLFTPVTLTNSNCMVT | 0.437 ± 0.18
89 | YSTRRLGHLMC | -0.381 ± 0.79
90 | DGLARAYAARM | 1.53 ± 0.29
91 | LCNSEIFNMANISMS | 0.498 ± 0.19
92 | LAGYNFLKETRDMVTIMAYE | inactive
93 | YNRNRCEVWRLFCLFCLLCF | 2 ± 0.089
94 | LSNWSPFYMLHQSISFCSRS | 3.08 ± 0.051
95 | TGDSVGLGLLGSWRNEKVCD | 0.088 ± 0.3
96 | FYESKMGVMINFNWFYDTTS | 6.88 ± 0.069
97 | IDHYLVLASLDW | -0.41 ± 0.47
98 | LAPPKKAFISVKMSLDRYCV | -0.305 ± 0.26
99 | YVYMSYPYIILLFHYMSSDW | inactive
100 | NSKKWSQGIGTYSDRAFYVF | inactive
101 | VSSMHFFWF | -0.378 ± 0.54
102 | AYHAMVCYINLFSDVYLHGY | 4.98 ± 0.089
103 | CNCQMGDVLEGLGDVGLNNF | -1.65 ± 0.62
104 | EEVQAFI | -0.22 ± 0.48

Row | Substance | amyloid nucleation score
105 | IDDDHLEHEVNGSRRCKMRW | -0.055 ± 1.1
106 | HKAFVAAVERWAEYLDADVS | -0.585 ± 0.63
107 | SRLRRKEYGDWFFYYGWSTN | 0.237 ± 1
108 | ILRECFIFSHRKTHLLKFWL | -0.622 ± 1.1
109 | LTSWKDFRHN | 0.4 ± 0.5
110 | IGTGLDADTSM | 1.44 ± 0.16
111 | YQRRRSGGLELDWSNTMQGC | -0.015 ± 0.31
112 | IDFLM | -0.744 ± 0.39
113 | SGLLSFLTHSLFEFLSNKQW | -0.557 ± 1.1
114 | IYVGIHNLILMTSTLGVNKR | 6.06 ± 0.041
115 | NSMILDKNRDSTNFVSCFSY | -1.6 ± 0.49
116 | WHIFRNYAFIRVSM | 0.036 ± 0.46
117 | PIGINSVKVSNYINLRYCAC | 5.736 ± 0.043
118 | SPFNRLHY | -0.101 ± 1.1
119 | TFLWLLLY | 6.754 ± 0.034
120 | FIDLYLRFWVCTSFQCAHSI | inactive
121 | VCACLNMTCVFFILTGNGVK | 7.59 ± 0.039
122 | RVNNLLEKEGTSYGEFAYGL | 0.182 ± 0.45
123 | GYCKVGCFHLRYGSACCVRM | 0.511 ± 0.41
124 | VRTTYYNELETFLVLTPAMR | 1.36 ± 0.22
125 | YVKLCSRRDGT | -0.352 ± 0.18
126 | FQDTLDLRRLRYWCYPKLGL | -0.69 ± 0.55
127 | NIRWRGNPFPCIVRNSVGEI | 0.097 ± 0.31
128 | MVHMGGDDMCCGIVVWTQAP | 11.85 ± 0.066
129 | IMEYAPLYFIMF | 4.16 ± 0.069
